# Read-outs that look alike come from different tables or passages of the source.
# Tests used:
# TGF-β1 (Homo sapiens) = TGF-β1 (Homo sapiens) (UniProt P01137); details: cited from earlier work
# rhBMP-2 (Homo sapiens) [1] = molecular target: rhBMP-2 (Homo sapiens) (UniProt P12643); details: cited from earlier work
# [2] = molecular target: Recombinant human transforming growth factor-β1 (TGF-β1) (human) (UniProt P01137); test: SPR; Biacore T-100, CM5 chip, amine coupling, HBS-EP running buffer; TGF-β immobilised as ligand, Spp24 proteins as analytes; five concentrations of each analyte; kinetic constants by the manufacturer's software
# rhBMP-2 (Homo sapiens) [3] = molecular target: rhBMP-2 (Homo sapiens) (UniProt P12643); details: cited from earlier work; remark: listed apart in the source
# [4] = molecular target: rhOP-1 (BMP-7) (Homo sapiens) (UniProt P18075); test: SPR; details: cited from earlier work
# rhTGF-β (Homo sapiens) = rhTGF-β (Homo sapiens) (UniProt P01137); test: SPR; details: cited from earlier work
# rhBMP-2 (Homo sapiens) [5] = molecular target: rhBMP-2 (Homo sapiens) (UniProt P12643); test: SPR; details: cited from earlier work
# Chain of Spp18.1, C-terminal truncation product of Spp24 (domain or fragment) (Q27967 24-203): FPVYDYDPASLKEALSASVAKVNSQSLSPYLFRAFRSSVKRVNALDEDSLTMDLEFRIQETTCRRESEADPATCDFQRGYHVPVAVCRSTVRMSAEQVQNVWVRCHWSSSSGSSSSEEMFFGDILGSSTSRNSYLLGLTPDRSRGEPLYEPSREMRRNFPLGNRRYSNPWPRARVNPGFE
# Chain of Spp14.5, C-terminal truncation product of Spp24 (domain or fragment) (Q27967 24-203): as above
# Chain of Spp16.0, C-terminal truncation product of Spp24 (domain or fragment) (Q27967 24-203): as above
# Chain of rhBMP-2 (Homo sapiens) (P12643 283-396): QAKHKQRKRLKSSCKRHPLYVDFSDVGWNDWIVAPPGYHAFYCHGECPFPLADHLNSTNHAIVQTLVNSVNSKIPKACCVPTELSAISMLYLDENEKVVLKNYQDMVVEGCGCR
# Chain of Recombinant human transforming growth factor-β1 (TGF-β1) (human) (P01137 279-390): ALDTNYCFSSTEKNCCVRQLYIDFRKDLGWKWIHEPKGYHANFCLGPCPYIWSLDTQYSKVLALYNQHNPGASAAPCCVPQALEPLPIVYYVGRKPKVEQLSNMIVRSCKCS
# Chain of fetuin TRH1 peptide (P12763 114-133): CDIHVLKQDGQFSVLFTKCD
# Chain of rhOP-1 (BMP-7) (Homo sapiens) (P18075 293-431): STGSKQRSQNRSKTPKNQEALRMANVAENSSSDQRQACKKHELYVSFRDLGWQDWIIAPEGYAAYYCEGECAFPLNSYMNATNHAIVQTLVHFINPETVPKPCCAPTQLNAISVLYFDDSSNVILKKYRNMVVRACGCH
# Chain of TGF-β1 (Homo sapiens) (P01137 279-390): as the sequence (P01137 279-390) above
# Chain of rhTGF-β (Homo sapiens) (P01137 279-390): as above
Substance,Kd [2],koff [2],kon [2],also measured
fetuin TRH1 peptide,,,,Kd (TGF-β1 (Homo sapiens)): > 10000 nM; Kd (rhBMP-2 (Homo sapiens) [1]): 2400 nM
Spp24 TRH1 peptide (BBP),,,,Kd (rhBMP-2 (Homo sapiens) [3]): 30000 nM
BMP Binding Peptide (BBP) TRH1 domain (from UniProt Q27967),,,,Kd [4]: 11.6 nM; Kd (rhTGF-β (Homo sapiens)): 68 nM; Kd (rhBMP-2 (Homo sapiens) [5]): 53.3 nM

# Continued, in another order:
Kd [2],koff [2],kon [2],Substance,also measured
3250 nM,0.0122 s⁻¹,5550 M⁻¹ s⁻¹,"Spp16.0, C-terminal truncation product of Spp24 (domain or fragment)",
1410 nM,0.00589 s⁻¹,4180 M⁻¹ s⁻¹,"Spp14.5, C-terminal truncation product of Spp24 (domain or fragment)",
1390 nM,0.0106 s⁻¹,10000 M⁻¹ s⁻¹,"Spp18.1, C-terminal truncation product of Spp24 (domain or fragment)",

# From publication PMC3753320
